# Laboratory results published in IntAct's records for PubMed 16951355.
# B1: ICOS ligand (Homo sapiens), O75144 (parent)
# chain: MRLGSPGLLFLLFSSLRADTQEKEVRAMVGSDVELSCACPEGSRFDLNDVYVYWQTSESKTVVTYHIPQNSSLENVDSRYRNRALMSPAGMLRGDFSLRLFNVTPQDEQKFHCLVLSQSLGFQEVLSVEVTLHVAANFSVPVVSAPHSPSQDELTFTCTSINGYPRPNVYWINKTDNSLLDQALQNDTVFLNMRGLYDVVSVLRIARTPSVNIGCCIENVLLQQNLTVGSQTGNDIGERDKITENPVSTGEKNAATWSILAVLCLLVVVAVAIGWVCRDRCLQHSYAGAWAVSPETELTGHV
# Variants of: B1
# Conditions: with icos_human ICOS
row,Variant,effect of a mutation on the interaction
1,MRLGSPGLLFLLFSSLRADTQEKEVRAMVGSDVELSCACPEGSRFDANDVYVYWQTSESKTVVTYHIPQNSSLENVDSRYRNRALMSPAGMLRGDFSLRLFNVTPQDEQKFHCLVLSQSLGFQEVLSVEVTLHVAANFSVPVVSAPHSPSQDELTFTCTSINGYPRPNVYWINKTDNSLLDQALQNDTVFLNMRGLYDVVSVLRIARTPSVNIGCCIENVLLQQNLTVGSQTGNDIGERDKITENPVSTGEKNAATWSILAVLCLLVVVAVAIGWVCRDRCLQHSYAGAWAVSPETELTGHV [L47A],with no effect
2,MRLGSPGLLFLLFSSLRADTQEKEVRAMVGSDVELSCACPEGSRFDLNDVFVYWQTSESKTVVTYHIPQNSSLENVDSRYRNRALMSPAGMLRGDFSLRLFNVTPQDEQKFHCLVLSQSLGFQEVLSVEVTLHVAANFSVPVVSAPHSPSQDELTFTCTSINGYPRPNVYWINKTDNSLLDQALQNDTVFLNMRGLYDVVSVLRIARTPSVNIGCCIENVLLQQNLTVGSQTGNDIGERDKITENPVSTGEKNAATWSILAVLCLLVVVAVAIGWVCRDRCLQHSYAGAWAVSPETELTGHV [Y51F],decreasing interaction strength
3,MRLGSPGLLFLLFSSLRADTQEKEVRAMVGSDVELSCACPEGSRFDLNDVAVYWQTSESKTVVTYHIPQNSSLENVDSRYRNRALMSPAGMLRGDFSLRLFNVTPQDEQKFHCLVLSQSLGFQEVLSVEVTLHVAANFSVPVVSAPHSPSQDELTFTCTSINGYPRPNVYWINKTDNSLLDQALQNDTVFLNMRGLYDVVSVLRIARTPSVNIGCCIENVLLQQNLTVGSQTGNDIGERDKITENPVSTGEKNAATWSILAVLCLLVVVAVAIGWVCRDRCLQHSYAGAWAVSPETELTGHV [Y51A],disrupting interaction strength
4,MRLGSPGLLFLLFSSLRADTQEKEVRAMVGSDVELSCACPEGSRFDLNDVYVFWQTSESKTVVTYHIPQNSSLENVDSRYRNRALMSPAGMLRGDFSLRLFNVTPQDEQKFHCLVLSQSLGFQEVLSVEVTLHVAANFSVPVVSAPHSPSQDELTFTCTSINGYPRPNVYWINKTDNSLLDQALQNDTVFLNMRGLYDVVSVLRIARTPSVNIGCCIENVLLQQNLTVGSQTGNDIGERDKITENPVSTGEKNAATWSILAVLCLLVVVAVAIGWVCRDRCLQHSYAGAWAVSPETELTGHV [Y53F],disrupting interaction strength
5,MRLGSPGLLFLLFSSLRADTQEKEVRAMVGSDVELSCACPEGSRFDLNDVYVAWQTSESKTVVTYHIPQNSSLENVDSRYRNRALMSPAGMLRGDFSLRLFNVTPQDEQKFHCLVLSQSLGFQEVLSVEVTLHVAANFSVPVVSAPHSPSQDELTFTCTSINGYPRPNVYWINKTDNSLLDQALQNDTVFLNMRGLYDVVSVLRIARTPSVNIGCCIENVLLQQNLTVGSQTGNDIGERDKITENPVSTGEKNAATWSILAVLCLLVVVAVAIGWVCRDRCLQHSYAGAWAVSPETELTGHV [Y53A],disrupting interaction strength
6,MRLGSPGLLFLLFSSLRADTQEKEVRAMVGSDVELSCACPEGSRFDLNDVYVYWATSESKTVVTYHIPQNSSLENVDSRYRNRALMSPAGMLRGDFSLRLFNVTPQDEQKFHCLVLSQSLGFQEVLSVEVTLHVAANFSVPVVSAPHSPSQDELTFTCTSINGYPRPNVYWINKTDNSLLDQALQNDTVFLNMRGLYDVVSVLRIARTPSVNIGCCIENVLLQQNLTVGSQTGNDIGERDKITENPVSTGEKNAATWSILAVLCLLVVVAVAIGWVCRDRCLQHSYAGAWAVSPETELTGHV [Q55A],decreasing interaction strength

# Continued, values first:
row,effect of a mutation on the interaction,Variant
1,disrupting interaction strength,MRLGSPGLLFLLFSSLRADTQEKEVRAMVGSDVELSCACPEGSRFDLNDVYVYWATSESKTAVTYHIPQNSSLENVDSRYRNRALMSPAGMLRGDFSLRLFNVTPQDEQKFHCLVLSQSLGFQEVLSVEVTLHVAANFSVPVVSAPHSPSQDELTFTCTSINGYPRPNVYWINKTDNSLLDQALQNDTVFLNMRGLYDVVSVLRIARTPSVNIGCCIENVLLQQNLTVGSQTGNDIGERDKITENPVSTGEKNAATWSILAVLCLLVVVAVAIGWVCRDRCLQHSYAGAWAVSPETELTGHV [Q55A;V62A]
2,with no effect,MRLGSPGLLFLLFSSLRADTQEKEVRAMVGSDVELSCACPEGSRFDLNDVYVYWQTSESKAVVTYHIPQNSSLENVDSRYRNRALMSPAGMLRGDFSLRLFNVTPQDEQKFHCLVLSQSLGFQEVLSVEVTLHVAANFSVPVVSAPHSPSQDELTFTCTSINGYPRPNVYWINKTDNSLLDQALQNDTVFLNMRGLYDVVSVLRIARTPSVNIGCCIENVLLQQNLTVGSQTGNDIGERDKITENPVSTGEKNAATWSILAVLCLLVVVAVAIGWVCRDRCLQHSYAGAWAVSPETELTGHV [T61A]
3,with no effect,MRLGSPGLLFLLFSSLRADTQEKEVRAMVGSDVELSCACPEGSRFDLNDVYVYWQTSEAKTVVTYHIPQNSSLENVDSRYRNRALMSPAGMLRGDFSLRLFNVTPQDEQKFHCLVLSQSLGFQEVLSVEVTLHVAANFSVPVVSAPHSPSQDELTFTCTSINGYPRPNVYWINKTDNSLLDQALQNDTVFLNMRGLYDVVSVLRIARTPSVNIGCCIENVLLQQNLTVGSQTGNDIGERDKITENPVSTGEKNAATWSILAVLCLLVVVAVAIGWVCRDRCLQHSYAGAWAVSPETELTGHV [S59A]
